Experimental data taken from US20230285585A1, “TREATMENT OF PULMONARY HYPERTENSION” (PHILOGEN S.P.A., priority 2020, published 2023).

Assays:
[1] = system: Monocrotaline (MCT) induced pulmonary hypertension (PH) in C57BL/6 mice; experiment: Echocardiographic assessment in MCT induced PH mouse model (Example 4); assay type: in vivo; details: in contrast to KSF containing control immunocytokines
Experimental: To induce Pulmonary Hypertension (PH), C57BL/6 mice (bodyweight: 25-30 g) were used. The animals were obtained from ZET facility (Zentrale Experimentelle Tierhaltung) of the University Hospital Jena (UKJ, Jena, Germany). Prior to PH induction, mice were allowed to acclimatize for at least 7 days with ad libitum access to food and water as well as controlled light/dark cycles. […]
Echocardiographic assessment was performed on day 28 using the Vevo 770 Rodent-Ultrasound-System, Visual Sonic, Canada, 17 MHz probe RMV176. […] Body temperature and respiratory rate were continuously monitored. All surrogate parameters of right ventricular (RV) morphology and function were assessed, among others, RV basal and medial diameters (in mm), RV length (in mm), tricuspid annular plane systolic excursion (TAPSE, in mm), right atrial area (RA area, in mm^2) or main pulmonary artery diameter (MPA, in mm).
(§1) Statistical analyses were performed using IBM SPSS statistical software, version 25.0 (IBM SPSS Statistics for Windows. Armonk, N.Y., USA). Data are expressed as mean±standard deviation. […]

[2] = system: Monocrotaline (MCT) induced pulmonary hypertension (PH) in C57BL/6 mice; experiment: Right heart catheterization in MCT induced PH mouse model (Example 4); assay type: in vivo; details: for pressure values in the right ventricle, RVPsys (result in words): in contrast to KSF containing control immunocytokines
Text: To induce Pulmonary Hypertension (PH), C57BL/6 mice (bodyweight: 25-30 g) were used. The animals were obtained from ZET facility (Zentrale Experimentelle Tierhaltung) of the University Hospital Jena (UKJ, Jena, Germany). Prior to PH induction, mice were allowed to acclimatize for at least 7 days with ad libitum access to food and water as well as controlled light/dark cycles. In this set of experiments, 50 animals were investigated divided into the following 7 experimental groups: • sham induced controls (n=10) • MCT induced PH (n=8) • MCT induced PH+MACI (n=8) • MCT induced PH+F8mIL9F8 in CrAb format (n=6) • MCT induced PH+KSFmIL9KSF in CrAb format (n=6) • MCT induced PH+F8_(IgG-HC4)-mIL9 (n=6) • MCT induced PH+KSF_(IgG-HC4)-mIL9 (n=6)
For PH induction, the Monocrotaline (MCT, Carl Roth, Germany) method was used.
The sham induced controls were injected with 30 μl NaCl not containing MCT at day 1 (single dose; intraperitoneally, i.p.). […] The other 6 experimental groups were injected with MCT (single dose; intraperitoneally, i.p.; 60 mg/kg body weight; volume 30 μl). Animals in the MCT induced PH+MACI group received the drug (Macitentan, Actelion Pharmaceuticals Ltd.) from day 14 to day 28 (once daily; per os; 15 mg/kg body weight).
Animals in the MCT induced PH+F8mIL9F8 in CrAb format group received F8mIL9F8 3 times on days 14, 16 and 18 (intravenously, i.v.; 200 μg/injection; volume 154 μl). Animals in the MCT induced PH+KSFmIL9KSF in CrAb format group received KSFmIL9KSF 3 times on days 14, 16 and 18 (intravenously, i.v.; 198 μg/injection; volume 182 μl).
Animals in the MCT induced PH+F8_(IgG-HC4)-mIL9 group received F8_(IgG-HC4)-mIL9 3 times on days 14, 16 and 18 (intravenously, i.v.; 261 μg/injection; volume 137 μl). Animals in the MCT induced PH+KSF_(IgG-HC4)-mIL9 group received KSF_IgG-HC4mIL9 3 times on days 14, 16 and 18 (intravenously, i.v.; 258 μg/injection; volume 161 μl).
On day 28 after MCT injection, mice of all experimental groups were deeply anesthetized with a single dose of 100 mg/kg body weight ketamine and 10 mg/kg body weight Xylazin in approximately 60 μl each administered i.p.
Right heart catheterization using a 1.4 F micro conductance pressure-volume catheter (Model SPR-839; Millar Instruments Inc; PowerLab system, ADInstruments Ltd., Oxford, UK) was performed via the right vena jugularis interna to measure the systolic right ventricular pressure and thereby verify the success of the experimental setting. Mice were then sacrificed in deep anesthesia and analgesia to carry out cardiac blood collection after thoracotomy and to harvest the organs.
as §1

[3] = target: T1, recombinant fibronectin 11A12 domain (EDA) (Homo sapiens, UniProt P02751); experiment: Biacore surface plasmon resonance binding analysis; details: SPR, BIAcore X100, CM5 chip coated with recombinant fibronectin 11A12 domain
T1 construct: recombinant fibronectin 11A12 domain
T1 sequence (P02751 1629-1905 limits assumed): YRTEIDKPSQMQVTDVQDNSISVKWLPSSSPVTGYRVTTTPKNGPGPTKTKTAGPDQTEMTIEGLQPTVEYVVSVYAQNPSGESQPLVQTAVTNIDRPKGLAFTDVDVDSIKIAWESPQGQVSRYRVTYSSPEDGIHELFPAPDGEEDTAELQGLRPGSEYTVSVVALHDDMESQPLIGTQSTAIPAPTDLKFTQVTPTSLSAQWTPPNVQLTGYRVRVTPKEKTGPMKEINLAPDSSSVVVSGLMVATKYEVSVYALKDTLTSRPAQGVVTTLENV
Experimental: Binding affinity was determined by surface plasmon resonance using a BIAcore X100 instrument using a CM5 chip coated with recombinant fibronectin 11A12 domain. Samples were injected as serial-dilution, using a concentration range from […] to 125 nM.

| Molecule | apparent KD [3] | other results |
| --- | --- | --- |
| F8(IgG4-HC)-mIL9: two murine IL9 moieties fused to C-termini of heavy chains of F8 IgG4; SEQ ID NOs: 61 and 62 | – | echocardiographic signs of right ventricular load and dysfunction (result in words) [1]: significantly improved a variety; treatment effects relative to MACI (result in words) [2]: improved compared with the effects achieved by MACI; pressure values in the right ventricle, RVPsys (result in words) ([2]; listed as F8_(IgG-HC4)-mIL9): significantly reduced; pressure values in the right ventricle, RVPsys (result in words) ([2]; listed as IgG-HC4mIL9): significantly reduce |
| F8(db)-hIL9: human IL9 conjugated to the C-terminus of the F8 diabody; SEQ ID NO: 22 | in the nM range | – |
| F8(scFv)-hIL9-F8(scFv): human IL9 conjugated at N- and C-terminus to an F8 scFv, CrAb format; SEQ ID NO: 18 | in the nM range | – |
| hIL9-F8(db): human IL9 conjugated to the N-terminus of the F8 diabody; SEQ ID NO: 23 | in the nM range | – |
| mIL9-F8(db): murine IL9 conjugated to the N-terminus of the F8 diabody; SEQ ID NO: 21 (protein, murine IL9 conjugated to the N-terminus of the F8 diabody (mIL9-F8(Db))) QRCSTTWGIRDTNYLIENLKDDPPSKCSCSGNVTSCLCLSVPTDDCTTPCYREGLLQLTNATQKSRLLPVFHRVKRIVEVLKNITCPSFSCEKPCNQTMAGNTLSFLKSLLGTFQKTEMQRQKSRPGGGGSGGGGSGGGGSEVQLLESGGGLVQPGGSLRLSCAASGFTFSLFTMSWVRQAPGKGLEWVSAISGSGGSTYYADSVKGRFTISRDNSKNTLYLQMNSLRAEDTAVYYCAKSTHLYLFDYWGQGTLVTVSSGGSGGEIVLTQSPGTLSLSPGERATLSCRASQSVSMPFLAWYQQKPGQAPRLLIYGASSRATGIPDRFSGSGSGTDFTLTISRLEPEDFAVYYCQQMRGRPPTFGQGTKVEIK | in the nM range | – |
| F8(db)-mIL9: murine IL9 conjugated to the C-terminus of the F8 diabody; SEQ ID NO: 20 (protein, of murine IL9 conjugated to the C-terminus of the F8 diabody (F8(Db)-mIL9)) EVQLLESGGGLVQPGGSLRLSCAASGFTFSLFTMSWVRQAPGKGLEWVSAISGSGGSTYYADSVKGRFTISRDNSKNTLYLQMNSLRAEDTAVYYCAKSTHLYLFDYWGQGTLVTVSSGGSGGEIVLTQSPGTLSLSPGERATLSCRASQSVSMPFLAWYQQKPGQAPRLLIYGASSRATGIPDRFSGSGSGTDFTLTISRLEPEDFAVYYCQQMRGRPPTFGQGTKVEIKGGGGSGGGGSGGGGSQRCSTTWGIRDTNYLIENLKDDPPSKCSCSGNVTSCLCLSVPTDDCTTPCYREGLLQLTNATQKSRLLPVFHRVKRIVEVLKNITCPSFSCEKPCNQTMAGNTLSFLKSLLGTFQKTEMQRQKSRP | in the nM range | – |
